Laboratory results from the supplement of paper PMC9112550, “Optimization of the antimicrobial peptide Bac7 by deep mutational scanning” (BMC Biology, 2022).

Tested on: Escherichia coli TOP10
Assay: shrunken log2 fold change of peptide-encoding DNA abundance (4.5 h post-induction vs induction); higher = less antimicrobial activity (less host growth inhibition)
Conditions: time post-induction: 4.5 h; library: site-saturation at positions 5, 18, 19, 20
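Further: peptides expressed intracellularly from a pBAD plasmid library in pooled LB shake-flask culture, induced with 0.3% L-arabinose, DNA abundance read by NGS, three biological replicates, DESeq2 with apeglm shrinkage.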

| Sequence | shrunken log2 fold change |
| --- | --- |
| RRIRIRPPRLPRPRPRPMVVPRP | -0.0948 |
| RRIRTRPPRLPRPRPRPMYKPRP | -0.0126 |
| RRIRQRPPRLPRPRPRPMIAPRP | -0.00222 |
| RRIRCRPPRLPRPRPRPIPMPRP | -0.108 |
| RRIRGRPPRLPRPRPRPLIPPRP | -0.0737 |
| RRIRMRPPRLPRPRPRPWCEPRP | -0.0233 |
| RRIRDRPPRLPRPRPRPKQFPRP | -0.00831 |
| RRIRSRPPRLPRPRPRPLTQPRP | 0.243 |
| RRIRQRPPRLPRPRPRPIIEPRP | -0.504 |
| RRIRPRPPRLPRPRPRPTGAPRP | 0.55 |
| RRIRNRPPRLPRPRPRPVEIPRP | -0.0323 |
| RRIRNRPPRLPRPRPRPAVPPRP | -0.165 |
| RRIRCRPPRLPRPRPRPYFFPRP | -0.614 |
| RRIRSRPPRLPRPRPRPAQEPRP | 0.0123 |
| RRIRNRPPRLPRPRPRPERGPRP | 0.296 |
| RRIRPRPPRLPRPRPRPKQHPRP | -0.0393 |
| RRIRIRPPRLPRPRPRPCQGPRP | -0.0156 |
| RRIRERPPRLPRPRPRPKFEPRP | -0.0495 |
| RRIRGRPPRLPRPRPRPRVLPRP | 0.367 |
| RRIRRRPPRLPRPRPRPIMVPRP | -0.371 |
| RRIRMRPPRLPRPRPRPDVFPRP | 0.387 |
| RRIRIRPPRLPRPRPRPHDCPRP | -0.123 |
| RRIRLRPPRLPRPRPRPGGRPRP | -0.0451 |
| RRIRVRPPRLPRPRPRPCCEPRP | -0.0815 |
| RRIRGRPPRLPRPRPRPCTCPRP | 0.111 |

| Sequence | shrunken log2 fold change |
| --- | --- |
| RRIRLRPPRLPRPRPRPEERPRP | 0.231 |
| RRIRARPPRLPRPRPRPYETPRP | -0.0398 |
| RRIRCRPPRLPRPRPRPPECPRP | 0.131 |
| RRIRDRPPRLPRPRPRPNHPPRP | -0.222 |
| RRIRPRPPRLPRPRPRPEGQPRP | 0.798 |
| RRIRRRPPRLPRPRPRPPDPPRP | 0.707 |
| RRIRMRPPRLPRPRPRPRHHPRP | 0.415 |
| RRIRMRPPRLPRPRPRPWAVPRP | 0.396 |
| RRIRTRPPRLPRPRPRPFKLPRP | -0.0476 |
| RRIRSRPPRLPRPRPRPVYHPRP | 0.0286 |
| RRIRTRPPRLPRPRPRPYHYPRP | -0.185 |
| RRIRHRPPRLPRPRPRPLYDPRP | -0.738 |
| RRIRQRPPRLPRPRPRPFGWPRP | -0.0154 |
| RRIRWRPPRLPRPRPRPPHQPRP | 0.235 |
| RRIRVRPPRLPRPRPRPWRWPRP | 0.48 |
| RRIRKRPPRLPRPRPRPPDFPRP | 0.12 |
| RRIRWRPPRLPRPRPRPLEYPRP | -0.152 |
| RRIRSRPPRLPRPRPRPAIHPRP | -0.912 |
| RRIRIRPPRLPRPRPRPVDRPRP | 0.0811 |
| RRIRNRPPRLPRPRPRPVDRPRP | 0.148 |
| RRIRQRPPRLPRPRPRPEAFPRP | 0.127 |
| RRIRLRPPRLPRPRPRPDPKPRP | 0.331 |
| RRIRGRPPRLPRPRPRPMCLPRP | 0.0563 |
| RRIRTRPPRLPRPRPRPRNPPRP | 0.000872 |
| RRIRIRPPRLPRPRPRPIRAPRP | -0.634 |

| Sequence | shrunken log2 fold change |
| --- | --- |
| RRIRCRPPRLPRPRPRPIAFPRP | -0.195 |
| RRIRVRPPRLPRPRPRPGMLPRP | -0.333 |
| RRIRSRPPRLPRPRPRPGKVPRP | -0.0472 |
| RRIRHRPPRLPRPRPRPVHNPRP | 0.154 |
| RRIRGRPPRLPRPRPRPGREPRP | 0.217 |
| RRIRCRPPRLPRPRPRPLEKPRP | -0.072 |
| RRIRYRPPRLPRPRPRPDSTPRP | -0.112 |
| RRIRNRPPRLPRPRPRPMIWPRP | -0.166 |
| RRIRSRPPRLPRPRPRPFKWPRP | -0.24 |
| RRIRPRPPRLPRPRPRPLKCPRP | -0.131 |
| RRIRPRPPRLPRPRPRPAMHPRP | 0.367 |
| RRIRTRPPRLPRPRPRPFEIPRP | 0.0711 |
| RRIRRRPPRLPRPRPRPMIFPRP | -0.241 |
| RRIRGRPPRLPRPRPRPEYRPRP | 0.354 |
| RRIRARPPRLPRPRPRPTHFPRP | 0.809 |
| RRIRIRPPRLPRPRPRPRGVPRP | 0.0556 |
| RRIRGRPPRLPRPRPRPFSMPRP | 0.169 |
| RRIRFRPPRLPRPRPRPWYDPRP | 0.13 |
| RRIRNRPPRLPRPRPRPGELPRP | -0.0397 |
| RRIRGRPPRLPRPRPRPLMPPRP | 0.285 |
| RRIRKRPPRLPRPRPRPADIPRP | -0.075 |
| RRIRPRPPRLPRPRPRPERKPRP | 0.489 |
| RRIRIRPPRLPRPRPRPDHDPRP | -0.0366 |
| RRIRWRPPRLPRPRPRPAFWPRP | 0.708 |
| RRIRKRPPRLPRPRPRPSEIPRP | 0.157 |

| Sequence | shrunken log2 fold change |
| --- | --- |
| RRIRNRPPRLPRPRPRPKRKPRP | 0.226 |
| RRIRFRPPRLPRPRPRPGCHPRP | -0.141 |
| RRIRARPPRLPRPRPRPKYHPRP | -0.103 |
| RRIRCRPPRLPRPRPRPWDAPRP | -0.758 |
| RRIRFRPPRLPRPRPRPYLTPRP | -0.875 |
| RRIRMRPPRLPRPRPRPYHRPRP | -0.141 |
| RRIRTRPPRLPRPRPRPHNYPRP | -0.329 |
| RRIRMRPPRLPRPRPRPEREPRP | 1.76 |
| RRIRSRPPRLPRPRPRPGINPRP | 0.00688 |
| RRIRFRPPRLPRPRPRPEWIPRP | -0.0219 |
| RRIRMRPPRLPRPRPRPARKPRP | 1.29 |
| RRIRSRPPRLPRPRPRPEHCPRP | -0.0141 |
| RRIRCRPPRLPRPRPRPPRPPRP | 0.957 |
| RRIRDRPPRLPRPRPRPYPNPRP | -0.0838 |
| RRIRWRPPRLPRPRPRPRMMPRP | 0.0684 |
| RRIRPRPPRLPRPRPRPRLSPRP | 0.306 |
| RRIRPRPPRLPRPRPRPDNWPRP | -0.121 |
| RRIRRRPPRLPRPRPRPHSWPRP | 0.333 |
| RRIRVRPPRLPRPRPRPPNHPRP | -0.0404 |
| RRIRYRPPRLPRPRPRPWDWPRP | -0.0724 |
| RRIRIRPPRLPRPRPRPHHGPRP | -0.0784 |
| RRIRKRPPRLPRPRPRPDKWPRP | 0.429 |
| RRIRRRPPRLPRPRPRPVGIPRP | 0.12 |
| RRIRTRPPRLPRPRPRPNPWPRP | 0.0694 |
| RRIRGRPPRLPRPRPRPSHGPRP | 0.487 |

| Sequence | shrunken log2 fold change |
| --- | --- |
| RRIRGRPPRLPRPRPRPRIFPRP | 0.804 |
| RRIRGRPPRLPRPRPRPWLGPRP | 0.245 |
| RRIRIRPPRLPRPRPRPCREPRP | -0.0225 |
| RRIRRRPPRLPRPRPRPCTNPRP | 0.0186 |
| RRIRARPPRLPRPRPRPVGYPRP | 0.265 |
| RRIRPRPPRLPRPRPRPESVPRP | 0.0986 |
| RRIRDRPPRLPRPRPRPKFCPRP | -0.0512 |
| RRIRKRPPRLPRPRPRPLTTPRP | 0.539 |
| RRIRERPPRLPRPRPRPPKWPRP | -0.176 |
| RRIRYRPPRLPRPRPRPFRNPRP | -0.462 |
| RRIRGRPPRLPRPRPRPMALPRP | -0.0079 |
| RRIRCRPPRLPRPRPRPVMNPRP | -0.0483 |
| RRIRQRPPRLPRPRPRPRAQPRP | -0.0701 |
| RRIRLRPPRLPRPRPRPKNWPRP | -0.0113 |
| RRIRERPPRLPRPRPRPHEDPRP | 0.111 |
| RRIRHRPPRLPRPRPRPLKNPRP | -0.273 |
| RRIRARPPRLPRPRPRPLIVPRP | 0.287 |
| RRIRGRPPRLPRPRPRPQVPPRP | -0.0856 |
| RRIRRRPPRLPRPRPRPVAEPRP | 0.663 |
| RRIRHRPPRLPRPRPRPSEIPRP | -0.0493 |
| RRIRKRPPRLPRPRPRPFGRPRP | -0.209 |
| RRIRSRPPRLPRPRPRPLDAPRP | 0.259 |
| RRIRGRPPRLPRPRPRPVTHPRP | 0.106 |
| RRIRVRPPRLPRPRPRPISTPRP | -0.112 |
| RRIRQRPPRLPRPRPRPLFKPRP | -0.387 |

| Sequence | shrunken log2 fold change |
| --- | --- |
| RRIRGRPPRLPRPRPRPNPGPRP | 0.158 |
| RRIRNRPPRLPRPRPRPPKWPRP | 0.411 |
| RRIRQRPPRLPRPRPRPVHRPRP | -0.0635 |
| RRIRTRPPRLPRPRPRPPERPRP | 0.351 |
| RRIRVRPPRLPRPRPRPLVFPRP | -0.00523 |
| RRIRIRPPRLPRPRPRPCHNPRP | -0.293 |
| RRIRVRPPRLPRPRPRPRVTPRP | 0.274 |
| RRIRDRPPRLPRPRPRPNGRPRP | 0.00232 |
| RRIRLRPPRLPRPRPRPDCCPRP | 0.0778 |
| RRIRIRPPRLPRPRPRPHGYPRP | -0.714 |
| RRIRYRPPRLPRPRPRPITQPRP | -0.532 |
| RRIRYRPPRLPRPRPRPMFTPRP | -0.629 |
| RRIRMRPPRLPRPRPRPSTTPRP | 0.352 |
| RRIRRRPPRLPRPRPRPVMKPRP | -0.025 |
| RRIRERPPRLPRPRPRPLKLPRP | -0.118 |
| RRIRERPPRLPRPRPRPRSEPRP | -0.0574 |
| RRIRLRPPRLPRPRPRPMENPRP | -0.105 |
| RRIRPRPPRLPRPRPRPKYIPRP | -0.433 |
| RRIRVRPPRLPRPRPRPGKWPRP | -0.141 |
| RRIRVRPPRLPRPRPRPSIQPRP | -0.321 |
| RRIRNRPPRLPRPRPRPVQKPRP | -0.0122 |
| RRIRGRPPRLPRPRPRPNQWPRP | 0.259 |
| RRIRFRPPRLPRPRPRPHGFPRP | -0.105 |
| RRIRFRPPRLPRPRPRPMSMPRP | 0.00945 |
| RRIRTRPPRLPRPRPRPNCKPRP | -0.218 |
